{
  "source": "patent US20150252148A1",
  "test_system": "Dynamic MAPTrix™ Laminin",
  "data": [
    {"substance": "type IV bacterial collagenase", "values": [
      {"measurement": "enzymatic digestion monitored by SDS-PAGE (25:1 substrate:collagenase, 2 h, 37° C.)", "value": "the apparent molecular weight of various fractions from disgested Dynamic MAPTrix™ Laminin on a SDS-PAGE gel was 29, 18, and 12 kDa"}
    ]}
  ]
}
